# Data reported in a protein production outcome set (Wang et al. 2014).
# Assay: label from the status in PepcDB records
row,Sequence,protein production
1,MMNLPKNIQQPLSLIYLDANATTQVLPQAASAALSTMETLFGNPSSSHISGLQAKQIVDKTRQQAKRIVGAAEGKIIFTSGATEGIQTAILSALVNVKKTLNKSLNNKSYSLLYGATEHKAVPESLKHWNKILEINAEIKAIPVDEKGQLDMAFIAKEVPNALMVCTMAVNNETGVYQDISLLDQTIRTNNPNVAWMVDCVQALGKTDLVLAQTSIDYAPFSGHKLYAPKGIGFMYVKEKAPFTAFIAGGGQESGLRSGTENLPGLAALSEIFSMLLGESEASFTPIKTLHLYRQQLVSALTQAFPEITFNHSFENSVATTLNFAIPGFSSKEIMDLFDAANIRVSSGSACSSKVTRSFVLDAMGLPAWQSESAIRMSFGPAMTQTEIDIACSRIVSAAQALVQSCLTLDKKNIDTQTMNTSSTTNKTELDGLVQFKAGGSCSWLYVDKKTRSAVFIDPLSEVSERLQTLLTCRGLNLVAVIDTHGHADHKSCRNGIAKKFLAEQQTEYLGWPAGAQTTTIHGQTFQYLILGDKWLIKVATPGHTDDSMSLLLCDPVTDSAEKLQVHYAFCGDLILMDSIGRSNFSTSSAPAMYSSLKLMKSLIGNNSLICPSHDYHNEFTTCLETEMKRNSLLRQVINSEIDIEEFTSKKIKMDKDIINESGSEIMCGALIGACQKVVVREYDSASLTKAVKKSSDMKLIDIREPHEYALQHDEKFTSNVPLTRLVQFVKEQQQNKEQEFVLVCRSGGRSQLAAQALARLGFENVGHLKGGYALHQY,failed
2,MMNRVILVGRLTKDPDLRYTPNGVAVATFTLAVNRAFANQQGEREADFINCVIWRKQAENVANYLKKGSLAGVDGRLQTRNYEGQDGKRVYVTEVLAESVQFLEPRNGGGEQRGSFNQQPSGAGFGNQSSNPFGQSSNSGNQGNQGNSGFTKNDDPFSNVGQPIDISDDDLPF,failed
3,MMPPNQPLATYLDDAPSHGGMMRERRYYRAYGLTVASDVALPELEPTEPAAADILIAIGTIDMPKPSSEAATIFRFEPDRQYLAWHAVGAFLISDADRIDIEPAPGVDDALLAFPLLGPVMALLLHQRGLLVLHASAIAAAGKGAIFMGDKGAGKSTTASALIRAGHELLTDDVVALDLARPDAPMIVAGFPQIKLAADAAAAISLGRAEVRPQVHPAIEKMQHRLHGAFSGGMVPATRIYVLERGAKAAITALPGIAALPAIIKFSYVTRFGRAALSGDFAALHLRQCSAIANHVGVFRLEVPTGLDRIGEAVALVESDLAAGDLAAGRRRR,failed
4,MMQSITTFMAALGKYDFLQSALITAIMVGVMSGIIGSFIILRGMSMMGDAISHAVLPGVAVAYMLGINVLIGASVFGILAASLIGFVASRSKIKTDTSIGIVFSAFYALGFILISLAESSTNLHHILFGNILAVSDTDMMTTTVVLGLVILFVAFFYKELLITSFDPTFAKTYGLKVQLLHYALMLVLTLVTVSALQTVGIILVVAMLITPAATAFLWTERLAVMLGLSALIGVLSSVVGLYLSYTLNWASGPAIVLVAAIFFGISFIISPKQALLPTLWKGQAAARRVTA,failed
5,MMRLLGILFILLSSSFNVYAQLPQVSAGSIERLTSFPSAFVPPRNIDIWLPAGYDKQQRYAVLYMHDGQMLFDATTSWNKQEWQIDEVASRLIKAGKTQPFIVVGIDNAGENRHSEYFPQQPFENLSQAQQTALYQLQRTKNQALFSQQVYSDRYLKFLVTELKPYIDSHYSVYTDAAHTFVMGSSMGGLISLYAISEYPHIFGGAACLSTHWPGTFEQQNNPIPPAFFNYMQQKLPDPSTHKLYFDHGTATLDAWYPQLQAKADKIIEAKGYTSQNWQSLIFEGAEHSEHAWAARLDIPLIFLLA,failed
6,MMRQPRARTMTMRDDIRDLPANDDRMTRFLGGSPMAVAFRLILMSILVGVVLAAIGLDPWNIITSIRLLFERIWDLGFDAINGLWRYFLLGAVIVIPIWLLTRLASTPRGR,failed
7,MMRTGFQGVARLVHHKALYRSPQTLPRLHLASAFGSSTDSLVARFCGEKTDLKDYALPNASWCPDMLSLYQEFLEKTKSGSWVKLPSFKSNRDHIRGLKLPFGLVAASDKQDWRLFTRSIQLEGQGYEYVIFFHPSEKKSVCLFQPGPYLEGAPGFAHGGSLAALMDETYSKTAYLAGEGLFTLSFNIKFKNLIPVGSLAVLDLQVEKIEDQKLYMSCIAQSRDKQTVYAKSSGVFLQLQLEEEQSGEQ,failed
8,MMSAVPVSLPVKMLVTRHISPDRYGDFLAWMRQGEILAAGFPGFLGSGVLQPPEGGDQYQIVLRFDSEASLARWEQSLPRRMWLERGAALVRASHARRVTGMDSWFGAPAGAPPRWKQAVSIWLVYFPMLLLFSTALDAQLNALPLFWRVLATTLCMTPVLSFLCIPLVTRVLRGWLHPRAVGAAD,failed
9,MMSNLCKYGPPPDSDSDSSYDGFYFSDKVKRSKPAPYVDPEQKLYDAVVAGDLKTMQEEMRKLVLQVDQPVKGGLNLLMLACREGHYKIVEWLLERAGANVNRQLDSLMPLMMACNTTHKDPCLAERIVGLLLRHGAVINVSEKYGMTPFMFACQNGFAGVVRLLIKDASFDAVDNQGCTAIFHAIEKNHVEVVKLLVEAGANATIANNKGYTPTQVAECHGYYDLLEILPRPASTYLVPTHFLGYNTLRDHIPRIFLKSDCPEYFQELNGILEAINIGNMVQYFAIARISLADFLVMDEQSLREIGIEYPIFRHKILTGILDFHLHHWSNSSIARVKKDEMNNFYEILLITASHLQHLVIIQASLRFILKNQEHNKMGQPSEMQVAAMKSNLQGYRDVLNQITKTVKYLGSFSPSQNPLFIDFNEILAERKRKKVRSYFKYTTIILGISVFICLKCKWFS,failed
10,MMSQSERPDVAEIRVPFRDVDMNGQMFLASYISYAESVLASFWSSRPDVDDEPVYSPSKVSCFLHRPLHYDEPATFTATIDKIGVRSIGFLISIDTGEERAAEVEIIWQAHAPEDQSPASLPEETRDWLYRFLN,failed
11,MMSTTLNTRQATTADIPFLARIEYEASLPPLNHCFWDDLLDGTGTTALQFIEAELKADACNWGNVPDFLILEAGGQPVAAAAGYVPGTDDYCPLCLSQLGAIAKELNWGEETLEGFREHYVGLWGGNLRPLFLTPQATWIIENVAVLPEARGQGFGKALLRALLAKGRSQGHEFAGIMVINGNDRARHTYESVGFKPYQTFYKDYFWEQFKIDFPGVTKFGMRLN,failed
12,MMSYDAETGIAKVKCQSQSTCGACSARETCGTESLSELNGKRGEHIFTLETITPLRTDQMVEIGLEEKSMLFSALLMYIVQLFTLLVATLLSSYISENELIRAILIFMLTALSFVMVKRYTRKLGQQTEFQSVLLRVLF,failed
13,MMTALATVTGVERHGKQYEIDLSCEQQTSCSSCSSQKSCGTGVVTKAIGNKSLSWHLRTEKNVQVGQVVEIGFPESSLIKS,failed
14,MMTFNLREQQKRLQARMDELRAEIAFAQKGEKPWPYRSCLMREGRGYCEKHGEYHTHILVWSDRNGEDREEISCCPDCLIAEANDLTMELSSIKAEELTDNAGIALRFRDCEFDNYLEVNPGAARNLAACRRYAENWPDMLENGTSLVMTGSCGTGKNHLAVAMAKHIIRNYLASVEITDVMRLTRAVKNCWRNDSEKTADEVIERYASMDLLIIDEVGVQFGSAAEMAILQEIINARYESILPTILISNLSPEELWAFISPRIADRITDGGRNWLSFNWPSYRSRIRGVAALEHHHHHH,failed
15,MMTKYGVVGTGYFGAELARFMSKVEGAKITAIYDPVNAAPIAKELNCVATATMEALCSHPDVDCVIIASPNYLHKAPVIAAAKAGKHVFCEKPIALNYQDCKDMVDACKEAGVTFMAGHVMNFFHGVRHAKALIKAGEIGEVTQVHTKRNGFEDVQDEISWKKIRAKSGGHLYHHIHELDCTLFIMDETPSLVSMAAGNVAHKGEKFGDEDDVVLITLEFESGRFATLQWGSSFHYPEHYVLIEGTTGAILIDMQNTAGYLIKAGKKTHFLVHESQAEDDDRRNGNISSEMDGAIAYGKPGKRTPMWLSSIMKLEMQYLHDVINGLEPGEEFAKLLTGEALEHHHHHH,failed
16,MMTLVILLLFLLFCVLVFWISITFSIKYVLIFTAFLFSGLLVYYSFLTLAGLVHRSRKQKDRTLEHYPSVDILIPAHNEGVVIKDTLEAMAKIEYPGKLTVYLLNDNSQDETPEIGDDFDKAYAHIRHIRVPPGEPKGKSRVLNYGLSISDGEYFCVYDADNQPEPHALRMLVEHAETTEDAVGAVGHVRTVNEKRNWLTRMISLEFQIFQLLMQSGRWLLFQTGSLTGTNMLLRRAALEELGGYDPYAIAEDAELTLRITQKGYLLPIVPESITWEQEPEHLKILIKQRTRWLQGNLYILEKMFSSLSFFKGKLLVHSLQQVLVYVVFWLFLIISNVWFVIGLLGIFQIQYSIPLLFMWYVAYVTYVSQLFSAQSVERTFTPTNIFISVIMYFTYAQLFTYLFIRSLILYLRAKSKKQVIGWDKTVRFKKDK,failed
17,MMTQPMPGKPAEDAENELDIRGLFRTLWAGKLWIIGMGLAFALIALAYTFFARQEWSSTAITDRPTVNMLGGYYSQQQFLRNLDVRSNMASADQPSVMDEAYKEFVMQLASWDTRREFWLQTDYYKQRMVGNSKADAALLDEMINNIQFIPGDFTRAVNDSVKLIAETAPDANNLLRQYVAFASQRAASHLNDELKGAWAARTIQMKAQVKRQEEVAKAIYDRRMNSIEQALKIAEQHNISRSATDVPAEELPDSEMFLLGRPMLQARLENLQAVGPAFDLDYDQNRAMLNTLNVGPTLDPRFQTYRYLRTPEEPVKRDSPRRAFLMIMWGIVGGLIGAGVALTRRCSK,not failed
18,MMTTNTEYAPYRLELVNITKRYGGLVANDHISLKVAAGEIHAVLGENGAGKSTLMKIIYGAVKADEGEIVWNGRSVTVDSPAAARRLGIGMVYQHFSLFETLTVVENIALGLEEKFDLAHLAQRVVEVSEKYGLPIDPQRMVHSLSVGERQRVEIVRCLLQNPSLLILDEPTSVLTPQAVQVLFQTLRRLASEGVSILYISHKLNEIQSLCDTATILRGGQVTGTAIPKQETTASLAKMMIGRDLPAYQQHAYEGVQQPIFQVKQLSIPAQDMFGTSLKEINLSVNTGEILGIAGISGNGQAELLTALSGETTSLKESFWLDGQAIGHLHAGQRRKLGFGFVPEERLGRGAVPAMSLTENTLLTAFRMGMTRWGLVNYAKASAFAQACISKFGVKASGSDAAARSLSGGNLQKFIVGREIMQQPKVMVVAQPTWGVDVGASAFIRQTLIDLSRQGVAIVVISEELEELFEISDRIAVLAAGQLSPPQPVNETNAEQIGLLMSGLQRDSQPQEDVIRVSI,failed
19,MMVISEKVRKALNDQLNREIYSSYLYLSMATYFDAEGFKGFAHWMKKQAQEELTHAMKFYEYIYERGGRVELEAIEKPPSNWNGIKDAFEAALKHEEFVTQSIYNILELASEEKDHATVSFLKWFVDEQVEEEDQVREILDLLEKANGQMSVIFQLDRYLGQRE,not failed
20,MMVPDVSNFAVILTTSGAILLIAYLTAISARDVIRLLISLELMFAAVFLAIVPLFSINPPMAYAVAIITAFTSSTELMVLVTAIILLDRRKRGIDVDKVAVGGDSL,failed
21,MMWIPYNQGFHAGPKCLTVVFIYLLNMKVLRHIYRFLMELYGPQGWWPLLDRDTMTLRYHPGDYTPPSDDGDVFEVITGSILTQNTSWDSAASALRNLAAMDALKPHRILSLDDAELEAAIRCAGFYRQKVSYLREMAGFFISLEGSTPSRKELLKVRGVGPETADSVLLYAYRKPEFVVDAYTRRILTHLGLIAGDESYHRIKELFERSLEPDFRVFQEYHALIVRHGKSYYRGRVHGDGDPLEHHHHHH,failed
22,MMWNLIKNEFIKLRYKRKYIICTIVFALICIGFCAVYVKMQKASTPDAAIQYYKDAKSSLQSKEKNIKDATLKQQYDQQISQLDEQIKQYQQSKNQGNSNWKKQLKNTIDSLKDEKNQAADITENTAKESYNKQIVFYQYLLNHNIKPQDNNSLSTFQLLQSLLKLIGYILIPIIIAIFSADIVSGEYTPPTIKVLLSKPASRAKILASKFIASAISCIAIILLIELITYLITGIAYGFDNPSYPVLVGTKYMNSGIKLTQDSTGLIPILGSSYVIPLWQFLIEMFLFQILFIIGCCSFFLLLSVVLRSSVLSMTLSIMIVIALNIISQISALHVIMPFLFTNYGSPYDILTNSIPSTSGLTFTTAIFGVIYLIIFTILCYGIANYSFKKKDMTV,failed
